The Human Domainome abundance scans (Beltran et al. 2025)
± gives the uncertainty stated by the source.

B1: POU domain, class 3, transcription factor 2, residues 356 to 411; numbered along this chain, P20265 (parent)
chain: KKRTSIEVSVKGALESHFLKCPKPSAQEITSLADSLQLEKEVVRVWFCNRRQKEKR

Variants of: B1
Test: abundance fitness (aPCA) (normalised: wild type 0, dead -1); higher = more abundant; growth selection in yeast, the domain comes from the species named
Settings: Homo sapiens

Question: With KKRTSIEVSVKGALESHFLKCPKPSAQEITSLADSLQLFKEVVRVWFCNRRQKEKR [E39F] as the variant, how does the abundance fitness read?
Answer: -1.01 ± 0.26

Question: For KKRDSIEVSVKGALESHFLKCPKPSAQEITSLADSLQLEKEVVRVWFCNRRQKEKR [T4D], which abundance fitness is on record?
Answer: 0.023 ± 0.16

Question: For KKRTSIEVSVKGFLESHFLKCPKPSAQEITSLADSLQLEKEVVRVWFCNRRQKEKR [A13F], which abundance fitness is on record?
Answer: -0.019 ± 0.19

Question: For KKRTSIEVSVKGAVESHFLKCPKPSAQEITSLADSLQLEKEVVRVWFCNRRQKEKR [L14V], which abundance fitness is on record?
Answer: -0.641 ± 0.13

Question: For KKRTSIEVSVKGALESHFLKCPKPKAQEITSLADSLQLEKEVVRVWFCNRRQKEKR [S25K], which abundance fitness is on record?
Answer: -0.318 ± 0.14

Question: With KKRTSIEVSVKGALKSHFLKCPKPSAQEITSLADSLQLEKEVVRVWFCNRRQKEKR [E15K] as the variant, how does the abundance fitness read?
Answer: -0.83 ± 0.21

Question: For KKRTSIEVSVKGALESHFLKCPKPSAQEITSLADSLQLEKEVWRVWFCNRRQKEKR [V43W], which abundance fitness is on record?
Answer: -0.793 ± 0.16

Question: Which abundance fitness does the source give for KKRTSIEVSVKGALESHFLKCPKPSAQELTSLADSLQLEKEVVRVWFCNRRQKEKR [I29L] here?
Answer: -0.095 ± 0.089

Question: For KKRTSIEISVKGALESHFLKCPKPSAQEITSLADSLQLEKEVVRVWFCNRRQKEKR [V8I], which abundance fitness is on record?
Answer: 0.051 ± 0.1

Question: With KKRTSIEVSVKGALESHFLKCPKPSAQEITSLADSGQLEKEVVRVWFCNRRQKEKR [L36G] as the variant, how does the abundance fitness read?
Answer: -0.866 ± 0.085

Question: Which abundance fitness does the source give for KKRTSIEVSVKGALESHFLKCPKPSAQEITSLADSHQLEKEVVRVWFCNRRQKEKR [L36H] here?
Answer: -0.527 ± 0.15

Question: With KKRTSIEVSVKGALESHFLKCPKPSAQEITSLADSLQLEKEVVRVWFCNARQKEKR [R50A] as the variant, how does the abundance fitness read?
Answer: -0.35 ± 0.086

Question: Which abundance fitness does the source give for KKRTSIEVSVKGALESHFLKCPKPSAQEITSLADSLQLEKEVVRQWFCNRRQKEKR [V45Q] here?
Answer: 0.061 ± 0.11

Question: For KKRTSIEVSVKGALESHFLKCPKPSAQEIISLADSLQLEKEVVRVWFCNRRQKEKR [T30I], which abundance fitness is on record?
Answer: -0.237 ± 0.11

Question: Which abundance fitness does the source give for KKRTSIEVSVKGALESHFLKCPKPSAQEITSLADSLQLEKEVVRVVFCNRRQKEKR [W46V] here?
Answer: -0.933 ± 0.12

Question: Which abundance fitness does the source give for KKRTSIEVSVKGALESHFLQCPKPSAQEITSLADSLQLEKEVVRVWFCNRRQKEKR [K20Q] here?
Answer: -0.443 ± 0.16

Question: For KKRTSIEVSVKGALESHFLKCPKPSAQRITSLADSLQLEKEVVRVWFCNRRQKEKR [E28R], which abundance fitness is on record?
Answer: -0.466 ± 0.093

Question: For KKRTSIEVSVKGAQESHFLKCPKPSAQEITSLADSLQLEKEVVRVWFCNRRQKEKR [L14Q], which abundance fitness is on record?
Answer: -0.848 ± 0.21

Question: For KKRTSIEESVKGALESHFLKCPKPSAQEITSLADSLQLEKEVVRVWFCNRRQKEKR [V8E], which abundance fitness is on record?
Answer: 0.093 ± 0.12

Question: Which abundance fitness does the source give for KKRTSIRVSVKGALESHFLKCPKPSAQEITSLADSLQLEKEVVRVWFCNRRQKEKR [E7R] here?
Answer: -0.014 ± 0.066

Question: For KKRTSIEVNVKGALESHFLKCPKPSAQEITSLADSLQLEKEVVRVWFCNRRQKEKR [S9N], which abundance fitness is on record?
Answer: -0.198 ± 0.12

Question: For KKRTSIEVSVKGALESHFLKCPKPSAQEITSLADSLQLEKGVVRVWFCNRRQKEKR [E41G], which abundance fitness is on record?
Answer: -0.408 ± 0.085

Question: With KKRTSIEVSVKGALESHFLKCPKPSAQKITSLADSLQLEKEVVRVWFCNRRQKEKR [E28K] as the variant, how does the abundance fitness read?
Answer: -0.413 ± 0.17

Question: With KKRTSIEVSVKGALESHFLKCPKPSAQEITSLADSLQKEKEVVRVWFCNRRQKEKR [L38K] as the variant, how does the abundance fitness read?
Answer: -0.927 ± 0.17

Question: Which abundance fitness does the source give for KKRTSIEVSVKGALESHFLKCPKPSAEEITSLADSLQLEKEVVRVWFCNRRQKEKR [Q27E] here?
Answer: -0.155 ± 0.094

Question: For KKRTSIEVSVKGALESHFLKCPKPSAQEITSLADSLQLEKEVVRVWFCNRRQDEKR [K53D], which abundance fitness is on record?
Answer: -0.234 ± 0.26

Question: With KKRTSIEVSVKGALESHFLKCPKPSAQEITSLADILQLEKEVVRVWFCNRRQKEKR [S35I] as the variant, how does the abundance fitness read?
Answer: -0.062 ± 0.15

Question: For KKRTSIEVSVKGALESHFLKCPKPSAQEITSLADSLQLEKEVVRVWDCNRRQKEKR [F47D], which abundance fitness is on record?
Answer: -0.852 ± 0.37

Question: Which abundance fitness does the source give for KKRQSIEVSVKGALESHFLKCPKPSAQEITSLADSLQLEKEVVRVWFCNRRQKEKR [T4Q] here?
Answer: -0.107 ± 0.14

Question: With KKRTSIEVSVKGALESHFLKCPKPSAQEITSLADSLQLEKEVVRVWFCNRRLKEKR [Q52L] as the variant, how does the abundance fitness read?
Answer: -0.125 ± 0.075

Question: Which abundance fitness does the source give for KKRTSIEVSVKGALESHFLKCPKPSAQEITSLADHLQLEKEVVRVWFCNRRQKEKR [S35H] here?
Answer: -0.026 ± 0.18

Question: Which abundance fitness does the source give for KKRTSIEVSVKGALESHFLKCPKPSAQEITSLADSLQLEKEVVPVWFCNRRQKEKR [R44P] here?
Answer: -0.814 ± 0.12

Question: With KKRTSIEVSVKGALESHFLKCPKPSAQEITSLADSLQLEKEVQRVWFCNRRQKEKR [V43Q] as the variant, how does the abundance fitness read?
Answer: -0.877 ± 0.19

Question: With KKRTSIEVSVKGALESHFLKCPKPSAQEICSLADSLQLEKEVVRVWFCNRRQKEKR [T30C] as the variant, how does the abundance fitness read?
Answer: -0.131 ± 0.098

Question: Which abundance fitness does the source give for KKRTSIEVSVKGALESHFLKCPKPSAQEITSLADSLQLMKEVVRVWFCNRRQKEKR [E39M] here?
Answer: -0.941 ± 0.16

Question: With KKRTSIEVSVKGALESHFLKCPKPSAQEITSLADSLQLEKEVVRVWFCNRRQKNKR [E54N] as the variant, how does the abundance fitness read?
Answer: -0.407 ± 0.21

Question: For KKRTSIEVSVKGALESHFYKCPKPSAQEITSLADSLQLEKEVVRVWFCNRRQKEKR [L19Y], which abundance fitness is on record?
Answer: -0.248 ± 0.15

Question: For KKRTSIEVSVKGALESHLLKCPKPSAQEITSLADSLQLEKEVVRVWFCNRRQKEKR [F18L], which abundance fitness is on record?
Answer: -0.836 ± 0.1

Question: Which abundance fitness does the source give for KKRTSIEVSVKGALESHFLKCPKPSAQEITSLADSLQLEKEVVRVWFCNCRQKEKR [R50C] here?
Answer: -0.868 ± 0.18

Question: For KKRTSIEVSVWGALESHFLKCPKPSAQEITSLADSLQLEKEVVRVWFCNRRQKEKR [K11W], which abundance fitness is on record?
Answer: -0.039 ± 0.13

Question: For KKRTSIEVSVKGALESHFLKCPKPSAQEITSLADSLQLEKEVVRVWFCNRRQKLKR [E54L], which abundance fitness is on record?
Answer: -0.313 ± 0.095

Question: Which abundance fitness does the source give for KKRTSIEVSVKGALESHFLKCPKPSAQEITSLADSLQLEKEVVRVWFYNRRQKEKR [C48Y] here?
Answer: 0.096 ± 0.12

Question: Which abundance fitness does the source give for KKRTSIEVSVKGALESHFLKCPKPSAQEITSLADSLQIEKEVVRVWFCNRRQKEKR [L38I] here?
Answer: -0.191 ± 0.14

Question: For KKRTSIEVSVKGALESHFLKCPKPSAQEITSLADSLQLEKEVARVWFCNRRQKEKR [V43A], which abundance fitness is on record?
Answer: -0.615 ± 0.089

Question: With KKRTSIEVSVKGALESHFLKCPKPSAQEIDSLADSLQLEKEVVRVWFCNRRQKEKR [T30D] as the variant, how does the abundance fitness read?
Answer: 0.05 ± 0.15

Question: For KKRTSIEVSVKGALESHFLKCPKPPAQEITSLADSLQLEKEVVRVWFCNRRQKEKR [S25P], which abundance fitness is on record?
Answer: -0.579 ± 0.14

Question: With KKRTSIEVSVKGALESQFLKCPKPSAQEITSLADSLQLEKEVVRVWFCNRRQKEKR [H17Q] as the variant, how does the abundance fitness read?
Answer: -0.286 ± 0.13
